From PMC10528418 (Molecular cell, 2023)

T1: TFIIIC subunit τ138 (S. cerevisiae, UniProt P34111 1-1160)
T1 sequence (looked up): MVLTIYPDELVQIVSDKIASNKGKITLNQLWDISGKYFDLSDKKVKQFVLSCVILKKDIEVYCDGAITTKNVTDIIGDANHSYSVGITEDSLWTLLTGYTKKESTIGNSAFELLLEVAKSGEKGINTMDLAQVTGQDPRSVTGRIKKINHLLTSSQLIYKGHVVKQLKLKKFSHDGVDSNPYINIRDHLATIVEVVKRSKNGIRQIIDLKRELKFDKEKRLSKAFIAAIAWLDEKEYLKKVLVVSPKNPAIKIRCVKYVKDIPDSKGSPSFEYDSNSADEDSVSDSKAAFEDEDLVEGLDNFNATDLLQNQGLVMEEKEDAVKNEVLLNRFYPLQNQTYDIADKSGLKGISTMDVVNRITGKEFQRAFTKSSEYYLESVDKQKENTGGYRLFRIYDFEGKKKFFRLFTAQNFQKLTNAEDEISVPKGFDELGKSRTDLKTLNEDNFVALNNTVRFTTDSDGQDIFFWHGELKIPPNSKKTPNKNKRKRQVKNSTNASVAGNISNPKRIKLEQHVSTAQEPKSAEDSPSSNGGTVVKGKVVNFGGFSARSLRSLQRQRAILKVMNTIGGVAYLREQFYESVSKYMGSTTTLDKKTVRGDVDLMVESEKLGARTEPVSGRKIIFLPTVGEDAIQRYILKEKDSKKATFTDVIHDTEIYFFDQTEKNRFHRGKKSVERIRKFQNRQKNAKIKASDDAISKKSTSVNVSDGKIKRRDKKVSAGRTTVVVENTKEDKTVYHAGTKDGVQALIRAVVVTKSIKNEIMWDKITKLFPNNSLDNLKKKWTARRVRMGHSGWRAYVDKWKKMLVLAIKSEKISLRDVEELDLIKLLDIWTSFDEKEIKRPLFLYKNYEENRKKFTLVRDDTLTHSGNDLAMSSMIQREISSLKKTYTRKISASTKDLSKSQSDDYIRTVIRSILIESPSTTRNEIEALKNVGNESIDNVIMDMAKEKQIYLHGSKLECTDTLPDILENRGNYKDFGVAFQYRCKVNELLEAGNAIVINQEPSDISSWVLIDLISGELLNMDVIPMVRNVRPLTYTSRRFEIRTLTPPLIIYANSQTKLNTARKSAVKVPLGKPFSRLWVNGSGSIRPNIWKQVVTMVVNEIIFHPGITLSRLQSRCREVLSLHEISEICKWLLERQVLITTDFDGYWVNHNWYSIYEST

B1: S. cerevisiae TFIIIA (natural protein)
chain: MGGEVLNNEGMPLAELKQETIPISRSESSESLNSLTSTRSSSSNRPKTYFCDYDGCDKAFTRPSILTEHQLSVHQGLRAFQCDKCAKSFVKKSHLERHLYTHSDTKPFQCSYCGKGVTTRQQLKRHEVTHTKSFICPEEGCNLRFYKHPQLRAHILSVHLHKLTCPHCNKSFQRPYRLRNHISKHHDPEVENPYQCTFAGCCKEFRIWSQLQSHIKNDHPKLKCPICSKPCVGENGLQMHMIIHDDSLVTKNWKCHICPDMSFSRKHDLLTHYGSIHTEEDIPLELKYKISDIQQLVQDHGVQLGNSKHSNEQDEEKISNRLRKRRKLTENNNVEFLQNEVDLEKRLESGENGLNLLLNTVGRKYRCFYNNCSRTFKTKEKYEKHIDKHKVHELKLKILQEKEENKTLVDQNHKEPFIIQKETQSAGDK
B2: TFIIIC subunit τ131 (natural protein, S. cerevisiae, UniProt P33339 1-1025, looked up)
chain: MAAGKLKKEQQNQSAERESADTGKVNDEDEEHLYGNIDDYKHLIQDEEYDDEDVPHDLQLSEDEYNSERDSSLLAEFSDYGEISEDDEEDFMNAIREASNFKVKKKKKNDKGKSYGRQRKERVLDPEVAQLLSQANEAFVRNDLQVAERLFNEVIKKDARNFAAYETLGDIYQLQGRLNDCCNSWFLAAHLNASDWEFWKIVAILSADLDHVRQAIYCFSRVISLNPMEWESIYRRSMLYKKTGQLARALDGFQRLYMYNPYDANILRELAILYVDYDRIEDSIELYMKVFNANVERREAILAALENALDSSDEESAAEGEDADEKEPLEQDEDRQMFPDINWKKIDAKYKCIPFDWSSLNILAELFLKLAVSEVDGIKTIKKCARWIQRRESQTFWDHVPDDSEFDNRRFKNSTFDSLLAAEKEKSYNIPIDIRVRLGLLRLNTDNLVEALNHFQCLYDETFSDVADLYFEAATALTRAEKYKEAIDFFTPLLSLEEWRTTDVFKPLARCYKEIESYETAKEFYELAIKSEPDDLDIRVSLAEVYYRLNDPETFKHMLVDVVEMRKHQVDETLHRISNEKSSNDTSDISSKPLLEDSKFRTFRKKKRTPYDAERERIERERRITAKVVDKYEKMKKFELNSGLNEAKQASIWINTVSELVDIFSSVKNFFMKSRSRKFVGILRRTKKFNTELDFQIERLSKLAEGDSVFEGPLMEERVTLTSATELRGLSYEQWFELFMELSLVIAKYQSVEDGLSVVETAQEVNVFFQDPERVKMMKFVKLAIVLQMDDEEELAENLRGLLNQFQFNRKVLQVFMYSLCRGPSSLNILSSTIQQKFFLRQLKAFDSCRYNTEVNGQASITNKEVYNPNKKSSPYLYYIYAVLLYSSRGFLSALQYLTRLEEDIPDDPMVNLLMGLSHIHRAMQRLTAQRHFQIFHGLRYLYRYHKIRKSLYTDLEKQEADYNLGRAFHLIGLVSIAIEYYNRVLENYDDGKLKKHAAYNSIIIYQQSGNVELADHLMEKYLSI
B3: TFIIIC subunit τ91 (natural protein, S. cerevisiae, UniProt Q06339 1-672, looked up)
chain: MAVIPAKKRGRPRKSVVAEVPYDSLASPVSENSGSKRPRRNASKKAVANFAQLVHAGRDDVINTTQVNNVDDTDDDDFVLNDEGDGEESDNVEIEFENELESTKNEVADLNSSGSGASVRPSGRRNTVQKLRLKKNSTKNMKSSSPGSSLGQKGRPIRLLKDLSSARDKIERIYGLNKEKLLLLAKVKEGFETSVFDFPFKNIQPDSPYFVCLDPPCKKESAYNKVIGDKNRTVYHEINKTEFENMIKLRTKRLKLLIGEVDAEVSTGDKIEFPVLANGKRRGFIYNVGGLVTDIAWLNIEENTDIGKDIQYLAVAVSQYMDEPLNEHLEMFDKEKHSSCIQIFKMNTSTLHCVKVQTIVHSFGEVWDLKWHEGCHAPHLVGCLSFVSQEGTINFLEIIDNATDVHVFKMCEKPSLTLSLADSLITTFDFLSPTTVVCGFKNGFVAEFDLTDPEVPSFYDQVHDSYILSVSTAYSDFEDTVVSTVAVDGYFYIFNPKDIATTKTTVSRFRGSNLVPVVYCPQIYSYIYSDGASSLRAVPSRAAFAVHPLVSRETTITAIGVSRLHPMVLAGSADGSLIITNAARRLLHGIKNSSATQKSLRLWKWDYSIKDDKYRIDSSYEVYPLTVNDVSKAKIDAHGINITCTKWNETSAGGKCYAFSNSAGLLTLEYLS
B4: TFIIIC subunit τ95 (natural protein, S. cerevisiae, UniProt P32367 1-649, looked up)
chain: MPVEEPLATLSSIPDSSADQAPPLIADEFTLDLPRIPSLELPLNVSTKHSSIQKAIKMCGGIEKVKEAFKEHGPIESQHGLQLYLNDDTDSDGSKSYFNEHPVIGKRVPFRDESVILKVTMPKGTLSKNNNSVKDSIKSLKDSNKLRVTPVSIVDNTIKFREMSDFQIKLDNVPSAREFKSSFGSLEWNNFKSFVNSVPDNDSQPQENIGNLILDRSVKIPSTDFQLPPPPKLSMVGFPLLYKYKANPFAKKKKNGVTEVKGTYIKNYQLFVHDLSDKTVIPSQAHEQVLYDFEVAKKTKVYPGTKSDSKFYESLEECLKILRELFARRPIWVKRHLDGIVPKKIHHTMKIALALISYRFTMGPWRNTYIKFGIDPRSSVEYAQYQTEYFKIERKLLSSPIVKKNVPKPPPLVFESDTPGGIDSRFKFDGKRIPWYLMLQIDLLIGEPNIAEVFHNVEYLDKANELTGWFKELDLVKIRRIVKYELGCMVQGNYEYNKYKLKYFKTMLFVKESMVPENKNSEEGMGVNTNKDADGDINMDAGSQMSSNAIEEDKGIAAGDDFDDNGAITEEPDDAALENEEMDTDQNLKVPASIDDDVDDVDADEEEQESFDVKTASFQDIINKIAKLDPKTAETMKSELKGFVDEVDL

Key:
TFIIIC subunit τ138 = biological target: T1, TFIIIC subunit τ138; test: cryo-EM structure
TFIIIC subunit τ131 = biological target: B2; test: cryo-EM structure

Row | binding result (TFIIIC subunit τ138) | binding result (TFIIIC subunit τ131) | Binder
1 | binds | – | B1
2 | binds | – | B2
3 | – | binds | B3
4 | binds | binds | B4
